We go through six molecules from paper PMC4298360 (2015).

To fix the notation:
B1: human IL-2Rβγ heterodimeric Fc fusion (knobs-into-holes), biotinylated (Fc fusion)
chain 1: AVNGTSQFTCFYNSRANISCVWSQDGALQDTSCQVHAWPDRRRWNQTCELLPVSQASWACNLILGAPDSQKLTTVDIVTLRVLCREGVRWRVMAIQDFKPFENLRLMAPISLQVVHVETHRCNISWEISQASHYFERHLEFEARTLSPGHTWEEAPLLTLKQKQEWICLETLTPDTQYEFQVRVKPLQGEFTTWSPWSQPLAFRTKPAALGKDT
chain 2: LNTTILTPNGNEDTTADFFLTTMPTDSLSVSTLPLPEVQCFVFNVEYMNCTWNSSSEPQPTNLTLHYWYKNSDNDKVQKCSHYLFSEEITSGCQLQKKEIHLYQTFVVQLQDPREPRRQATQMLKLQNLVIPWAPENLTLHKLSESQLELNWNNRFLNHCLEHLVQYRTDWDHSWTEQSVDYRHKFSLPSVDGQKRYTFRVRSRFNPLCGSAQHWSEWSHPIHWGSNTSKENPFLFALEA
B2: cynomolgus IL-2Rβγ heterodimeric Fc fusion (knobs-into-holes), biotinylated (Fc fusion)
chain 1: B1 chain 1 with Q7R, A66T, T74A, L83M, V92M, E127K, L158M
chain 2: B1 chain 2 with T14A, A16T, T22S, H141R, T228S
B3: murine IL-2Rβγ heterodimeric Fc fusion (knobs-into-holes), biotinylated (Fc fusion)
chain 1: AVKNCSHLECFYNSRANVSCMWSHEEALNVTTCHVHAKSNLRHWNKTCELTLVRQASWACNLILGSFPESQSLTSVDLLDINVVCWEEKGWRRVKTCDFHPFDNLRLVAPHSLQVLHIDTQRCNISWKVSQVSHYIEPYLEFEARRRLLGHSWEDASVLSLKQRQQWLFLEMLIPSTSYEVQVRVKAQRNNTGTWSPWSQPLTFRTRPADPMKE
chain 2: WSSKVLMSSANEDIKADLILTSTAPEHLSAPTLPLPEVQCFVFNIEYMNCTWNSSSEPQATNLTLHYRYKVSDNNTFQECSHYLFSKEITSGCQIQKEDIQLYQTFVVQLQDPQKPQRRAVQKLNLQNLVIPRAPENLTLSNLSESQLELRWKSRHIKERCLQYLVQYRSNRDRSWTELIVNHEPRFSLPSVDELKRYTFRVRSRYNPICGSSQQWSKWSQPVHWGSHTVEENPSLFALEA
B4: human IL-2Rα, monomeric, his-tagged (receptor)
chain: ELCDDDPPEIPHATFKAMAYKEGTMLNCECKRGFRRIKSGSLYMLCTGNSSHSSWDNQCQCTSSATRNTTKQVTPQPEEQKERKTTEMQSPMQPVDQASLPGHCREPPPWENEATERIYHFVVGQMVYYQCVQGYRALHRGPAESVCKMTHGKTRWTQPQLICTGEMETSQFPGEEKPQASPEGRPESETSCLVTTTDFQIQTEMAATMETSIFTTEYQVAVAGCVFLLISVLLLSGLTWQRRQRKSRRTI
B5: murine IL-2Rα, monomeric, his-tagged (receptor)
chain: ELCLYDPPEVPNATFKALSYKNGTILNCECKRGFRRLKELVYMRCLGNSWSSNCQCTSNSHDKSRKQVTAQLEHQKEQQTTTDMQKPTQSMHQENLTGHCREPPPWKHEDSKRIYHFVEGQSVHYECIPGYKALQRGPAISICKMKCGKTGWTQPQLTCVDEREHHRFLASEESQGSRNSSPESETSCPITTTDFPQPTETTAMTETFVLTMEYKVAVASCLFLLISILLLSGLTWQHRWRKSRRTI
B6: cynomolgus IL-2Rα, monomeric, his-tagged (receptor)
chain: ELCDDDPPKITHATFKAVAYKEGTMLNCECKRGFRRIKSGSPYMLCTGNSSHSSWDNQCQCTSSAARNTTKQVTPQPEEQKERKTTEMQSQMQLADQVSLPGHCREPPPWENEATERIYHFVVGQTVYYQCVQGYRALHRGPAESVCKMTHGKTRWTQPQLICTGETEPSQFPGEEEPQASPDGLPESETSRLVTTTDFRIQTEVAATMETFIFTTEYQ

Residue numbers refer to the chain shown, from its start.

One assay concerns the target T1, IgG-IL-2 (monovalent fusion of wild-type human IL-2 to a non-targeted, effector-silent human IgG1) (human, UniProt P60568 21-153). The assay is described as follows: SPR.
In general, koff refers to a measure of how fast the partners let go of each other. Read a low koff as a long-lived complex. With B1, the koff is 3.8e-05 s⁻¹.
On the same count and under the same terms, then B2, with 0.00011 s⁻¹; and B3, with 0.00065 s⁻¹.

Another assay has as its target T2, IgG-(IL-2)2 (bivalent fusion of two wild-type human IL-2 to a non-targeted, effector-silent human IgG1) (human, UniProt P60568 21-153). Kind of assay: SPR. A general note: Surface plasmon resonance follows binding to a sensor surface in real time, without labels.
In turn, B1 gave a koff of 8.1e-06 s⁻¹.
In turn, B2 had a koff of 5.3e-05 s⁻¹.
On the same count and under the same terms, with B3 the figure was 9.3e-05 s⁻¹.

In the next assay the target is T1, IgG-IL-2 (monovalent fusion of …). The assay is described as follows: SPR; steady state.
In turn, B4 showed a Kd of 15 nM.
On the same count and under the same terms, with B5 the figure was 110 nM.
Regarding B6, the Kd amounted to 30 nM.

Another assay addresses T2, IgG-(IL-2)2 (bivalent fusion of two …). The assay is described as follows: SPR; steady state.
For the molecule B4, the Kd was 5 nM.
For B5, the Kd was 30 nM.
Still for that read-out and setting: with B6 the figure was 15 nM.
